What all share (test): cell-based or functional assay
Assay [1] concerns the target H-2K^d class I molecule on P815 cells (mouse) (UniProt P01902).
For assay [2], the target named is T1, H-2D^d class I molecule on P815 cells (mouse) (UniProt P01900).
T1 sequence (MHC heavy, looked up): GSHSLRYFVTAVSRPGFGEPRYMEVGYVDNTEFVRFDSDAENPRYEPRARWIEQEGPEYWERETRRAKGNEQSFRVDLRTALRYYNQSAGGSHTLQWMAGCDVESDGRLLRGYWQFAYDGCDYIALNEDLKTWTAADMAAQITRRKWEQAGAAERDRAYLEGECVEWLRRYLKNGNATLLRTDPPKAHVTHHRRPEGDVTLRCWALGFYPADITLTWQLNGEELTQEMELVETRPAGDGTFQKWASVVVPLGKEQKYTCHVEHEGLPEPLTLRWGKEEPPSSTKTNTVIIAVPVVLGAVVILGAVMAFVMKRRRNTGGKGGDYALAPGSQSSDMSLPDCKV

Assay [3] addresses H-2L^d class I molecule on P815 cells (mouse) (UniProt P01897).
Assay [4] deals with H-2K^b class I molecule on RMA cells (mouse) (UniProt P01901).
The target of assay [5] is H-2D^b class I molecule on RMA cells (mouse) (UniProt P01899).
Sequence of UniProt P01899 (P01899 25-362): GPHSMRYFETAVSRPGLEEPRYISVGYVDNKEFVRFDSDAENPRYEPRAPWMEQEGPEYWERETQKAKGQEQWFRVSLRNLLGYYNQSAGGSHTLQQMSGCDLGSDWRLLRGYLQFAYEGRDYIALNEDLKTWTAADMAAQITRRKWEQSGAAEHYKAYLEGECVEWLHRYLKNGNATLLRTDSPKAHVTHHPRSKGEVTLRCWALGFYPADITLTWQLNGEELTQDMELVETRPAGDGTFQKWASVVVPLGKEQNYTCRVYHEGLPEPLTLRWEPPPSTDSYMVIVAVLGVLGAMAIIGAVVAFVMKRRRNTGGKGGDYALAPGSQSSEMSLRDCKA

Sequence of UniProt P01901 (P01901 22-369): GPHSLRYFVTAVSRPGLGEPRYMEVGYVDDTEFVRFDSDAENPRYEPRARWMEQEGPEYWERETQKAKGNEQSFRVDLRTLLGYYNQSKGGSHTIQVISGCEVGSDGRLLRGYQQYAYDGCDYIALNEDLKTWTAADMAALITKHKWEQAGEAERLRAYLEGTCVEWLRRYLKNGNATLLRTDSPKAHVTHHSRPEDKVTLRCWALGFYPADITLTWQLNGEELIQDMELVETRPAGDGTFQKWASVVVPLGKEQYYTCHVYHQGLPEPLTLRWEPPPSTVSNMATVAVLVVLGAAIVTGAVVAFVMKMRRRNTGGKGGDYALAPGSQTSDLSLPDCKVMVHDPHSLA
Sequence of UniProt P01897 (P01897 25-362): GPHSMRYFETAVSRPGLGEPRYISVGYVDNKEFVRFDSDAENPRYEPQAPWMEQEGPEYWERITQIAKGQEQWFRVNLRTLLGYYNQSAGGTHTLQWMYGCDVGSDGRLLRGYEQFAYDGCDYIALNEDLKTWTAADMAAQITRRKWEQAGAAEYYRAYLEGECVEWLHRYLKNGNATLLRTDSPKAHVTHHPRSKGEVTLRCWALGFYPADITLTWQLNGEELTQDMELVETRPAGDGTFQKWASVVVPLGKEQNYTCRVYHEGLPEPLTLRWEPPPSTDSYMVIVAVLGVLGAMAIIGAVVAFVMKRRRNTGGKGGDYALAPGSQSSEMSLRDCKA
Sequence of UniProt P01902 (P01902 22-368): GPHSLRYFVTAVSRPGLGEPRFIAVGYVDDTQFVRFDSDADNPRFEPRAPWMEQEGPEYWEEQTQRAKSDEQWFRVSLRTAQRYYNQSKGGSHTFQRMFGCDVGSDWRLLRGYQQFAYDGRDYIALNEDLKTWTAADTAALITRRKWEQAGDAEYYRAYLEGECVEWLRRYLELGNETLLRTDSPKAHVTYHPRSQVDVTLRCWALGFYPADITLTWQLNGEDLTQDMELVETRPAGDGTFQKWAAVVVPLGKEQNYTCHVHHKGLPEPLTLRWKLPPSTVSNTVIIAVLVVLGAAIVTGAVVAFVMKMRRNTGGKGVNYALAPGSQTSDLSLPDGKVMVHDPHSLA

NYGQLDIFP returned a % lysis of peptide-pulsed P815 target cells by CTL of mannan-HMFG immunised BALB/c mice (51Cr release) in assay [1] of 0%.

YYQELQRDI: in assay [1], the % lysis of peptide-pulsed P815 target cells by mannan-HMFG CTL, E:T 50:1 came to 50%.

YGQLDIFPA: in assay [2], the % lysis of peptide-pulsed P815 target cells by CTL of mannan-HMFG immunised BALB/c mice (51Cr release) was 0%.

In assay [3], KNYGQLDIF gave a % lysis of peptide-pulsed P815 target cells by CTL of mannan-HMFG immunised BALB/c mice (51Cr release) of 0%.

In assay [4], CRRKNYGQL came in with a % lysis of peptide-pulsed RMA target cells by mannan-HMFG CTL, E:T 50:1 of 20% and a % lysis of peptide-pulsed RMA target cells by mannan-HMFG CTL, E:T 100:1 of 42%. Besides, in assay [5], the % lysis of peptide-pulsed RMA target cells by mannan-HMFG CTL, E:T 50:1 stood at 20% and the % lysis of peptide-pulsed RMA target cells by mannan-HMFG CTL, E:T 100:1 stood at 42%.

In turn, SAPDTRPAP had a % lysis of peptide-pulsed RMA target cells by mannan-HMFG CTL in assay [4] of 80%. For the same molecule, in assay [2], the % lysis of peptide-pulsed P815 target cells by mannan-HMFG CTL, E:T 50:1 came to 62%.

Regarding SVPSSTEKN, the % lysis of peptide-pulsed P815 target cells by mannan-HMFG CTL, E:T 50:1 in assay [2] came out at 0%.

In assay [3], VPSSTEKNA had a % lysis of peptide-pulsed P815 target cells by mannan-HMFG CTL, E:T 50:1 of 78%.

APGSTAPPA showed a % lysis of peptide-pulsed RMA target cells by mannan-HMFG CTL in assay [5] of 70%.

For the molecule SAPDNRPAL, the % lysis of peptide-pulsed RMA target cells by mannan-HMFG CTL, E:T 50:1 in assay [5] is 50%.

For the molecule AVSMTSSVL, the % lysis of peptide-pulsed P815 target cells by mannan-HMFG CTL, E:T 50:1 in assay [1] is 77%. For the same molecule, in assay [4], the % lysis of peptide-pulsed RMA target cells by mannan-HMFG CTL, E:T 50:1 was found to be 18% and the % lysis of peptide-pulsed RMA target cells by mannan-HMFG CTL, E:T 100:1 was found to be 40%. In assay [5], this molecule registered a % lysis of peptide-pulsed RMA target cells by mannan-HMFG CTL, E:T 50:1 of 18% and a % lysis of peptide-pulsed RMA target cells by mannan-HMFG CTL, E:T 100:1 of 40%.

For the molecule APDTRPAPG, the % lysis of peptide-pulsed P815 target cells by mannan-HMFG CTL, E:T 50:1 in assay [3] is 50%.

The values are drawn from patent US6548643.
